Measurements published in the supplement of paper PMC10065799, “High-throughput profiling of sequence recognition by tyrosine kinases and SH2 domains using bacterial peptide display” (eLife, 2023).

What was measured:
Hck = Hck (UniProt P08631); assay: phosphorylation enrichment, bacterial display (enrichment ratio); higher = better substrate or ligand; peptides without Tyr show the background
EPHB2 = EPHB2 (UniProt P29323); assay: as above
Fer (mouse) = assay: as above
Fyn = Fyn (UniProt P06241); assay: as above
EPHB1 = EPHB1 (UniProt P54762); assay: as above
Fes = Fes (UniProt P07332); assay: as above
AncSZ = assay: as above
FGFR1 = FGFR1 (UniProt P11362); assay: as above
c-Abl (mouse) = assay: as above
FGFR3 = FGFR3 (UniProt P22607); assay: as above
Jak2 = Jak2 (UniProt O60674); assay: as above
c-Src = assay: as above
MERTK = MERTK (UniProt Q12866); assay: as above
c-Src SH2 = assay: SH2 binding enrichment of the phosphorylated peptide, bacterial display (enrichment ratio); higher = better substrate or ligand; peptides without Tyr show the background
SHP2-C SH2 = assay: as above
Grb2 SH2 = Grb2 SH2 (UniProt P62993); assay: as above
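Wherever SH2 binding enrichment of the phosphorylated peptide, bacterial display is given: peptide library displayed on the E. coli surface as eCPX fusions, selected cells deep-sequenced, score is each peptide's frequency after selection divided by its frequency in the input.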
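Wherever phosphorylation enrichment, bacterial display is given: 11-residue human phosphosite peptides and single-mutation variants displayed on the E. coli surface, counted by deep sequencing, each peptide's frequency after selection divided by its frequency in the unselected input library; frequency after pTyr selection over input frequency; kinase dosed for 20-30% of maximal phosphorylation in three min.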

Sequence of Hck (P08631 whole entry, looked up): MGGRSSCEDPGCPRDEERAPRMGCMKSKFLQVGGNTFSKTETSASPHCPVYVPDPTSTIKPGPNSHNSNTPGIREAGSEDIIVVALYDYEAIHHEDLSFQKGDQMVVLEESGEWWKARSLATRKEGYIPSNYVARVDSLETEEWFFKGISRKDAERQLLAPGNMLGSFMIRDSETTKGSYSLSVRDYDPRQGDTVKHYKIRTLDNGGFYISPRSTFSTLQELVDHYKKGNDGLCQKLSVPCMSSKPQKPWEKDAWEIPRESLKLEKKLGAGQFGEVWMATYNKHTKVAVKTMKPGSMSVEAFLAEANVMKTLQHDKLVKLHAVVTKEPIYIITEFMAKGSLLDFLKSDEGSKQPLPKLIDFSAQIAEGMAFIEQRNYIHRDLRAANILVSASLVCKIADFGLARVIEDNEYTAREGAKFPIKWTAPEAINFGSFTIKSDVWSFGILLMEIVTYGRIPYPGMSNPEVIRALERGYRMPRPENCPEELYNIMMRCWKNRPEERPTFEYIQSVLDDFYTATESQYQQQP
Sequence of EPHB1 (P54762 whole entry, looked up): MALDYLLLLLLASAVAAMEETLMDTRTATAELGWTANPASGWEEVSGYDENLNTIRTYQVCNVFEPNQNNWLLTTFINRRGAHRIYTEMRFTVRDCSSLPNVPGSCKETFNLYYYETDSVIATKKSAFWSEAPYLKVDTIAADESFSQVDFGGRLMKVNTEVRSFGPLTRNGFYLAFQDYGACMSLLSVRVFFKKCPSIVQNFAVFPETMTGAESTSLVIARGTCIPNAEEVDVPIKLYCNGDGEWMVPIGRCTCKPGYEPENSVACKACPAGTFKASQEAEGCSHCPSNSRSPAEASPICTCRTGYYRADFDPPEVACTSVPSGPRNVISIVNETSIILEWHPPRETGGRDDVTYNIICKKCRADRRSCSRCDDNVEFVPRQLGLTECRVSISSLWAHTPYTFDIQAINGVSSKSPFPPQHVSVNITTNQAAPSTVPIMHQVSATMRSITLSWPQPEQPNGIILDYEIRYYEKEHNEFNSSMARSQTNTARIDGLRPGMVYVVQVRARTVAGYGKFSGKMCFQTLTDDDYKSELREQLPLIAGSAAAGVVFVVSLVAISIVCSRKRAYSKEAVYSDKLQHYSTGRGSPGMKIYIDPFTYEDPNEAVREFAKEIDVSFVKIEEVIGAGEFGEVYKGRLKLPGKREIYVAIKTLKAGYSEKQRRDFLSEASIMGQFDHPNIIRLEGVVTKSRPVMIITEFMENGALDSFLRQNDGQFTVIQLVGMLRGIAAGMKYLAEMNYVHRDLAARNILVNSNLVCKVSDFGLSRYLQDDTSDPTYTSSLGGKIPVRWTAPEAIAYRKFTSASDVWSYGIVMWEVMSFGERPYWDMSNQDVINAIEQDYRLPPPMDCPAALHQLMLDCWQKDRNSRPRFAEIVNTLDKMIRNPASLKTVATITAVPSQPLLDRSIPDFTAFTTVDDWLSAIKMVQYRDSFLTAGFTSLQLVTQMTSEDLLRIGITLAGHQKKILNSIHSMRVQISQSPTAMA
Sequence of Fes (P07332 whole entry, looked up): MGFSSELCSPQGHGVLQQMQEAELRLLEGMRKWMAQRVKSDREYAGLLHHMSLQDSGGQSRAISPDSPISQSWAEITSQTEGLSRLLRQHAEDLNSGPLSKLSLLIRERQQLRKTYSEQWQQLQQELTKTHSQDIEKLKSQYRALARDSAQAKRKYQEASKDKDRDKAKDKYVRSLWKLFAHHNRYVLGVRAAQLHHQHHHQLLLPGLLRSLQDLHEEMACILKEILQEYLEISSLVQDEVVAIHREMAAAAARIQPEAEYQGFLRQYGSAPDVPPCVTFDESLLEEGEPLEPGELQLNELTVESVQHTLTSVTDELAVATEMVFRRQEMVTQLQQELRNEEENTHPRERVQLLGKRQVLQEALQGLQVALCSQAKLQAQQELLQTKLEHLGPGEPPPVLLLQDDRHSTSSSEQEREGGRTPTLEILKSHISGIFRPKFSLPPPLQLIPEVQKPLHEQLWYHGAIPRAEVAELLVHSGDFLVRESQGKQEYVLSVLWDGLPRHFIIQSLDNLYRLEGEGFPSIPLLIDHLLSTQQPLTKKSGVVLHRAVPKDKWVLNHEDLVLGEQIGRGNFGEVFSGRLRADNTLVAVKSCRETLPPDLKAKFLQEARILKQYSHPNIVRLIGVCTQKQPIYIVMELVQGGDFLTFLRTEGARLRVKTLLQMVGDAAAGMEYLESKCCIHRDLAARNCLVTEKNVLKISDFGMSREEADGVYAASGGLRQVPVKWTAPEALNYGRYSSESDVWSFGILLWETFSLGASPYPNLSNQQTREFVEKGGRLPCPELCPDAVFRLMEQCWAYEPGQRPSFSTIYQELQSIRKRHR
Sequence of Fyn (P06241 whole entry, looked up): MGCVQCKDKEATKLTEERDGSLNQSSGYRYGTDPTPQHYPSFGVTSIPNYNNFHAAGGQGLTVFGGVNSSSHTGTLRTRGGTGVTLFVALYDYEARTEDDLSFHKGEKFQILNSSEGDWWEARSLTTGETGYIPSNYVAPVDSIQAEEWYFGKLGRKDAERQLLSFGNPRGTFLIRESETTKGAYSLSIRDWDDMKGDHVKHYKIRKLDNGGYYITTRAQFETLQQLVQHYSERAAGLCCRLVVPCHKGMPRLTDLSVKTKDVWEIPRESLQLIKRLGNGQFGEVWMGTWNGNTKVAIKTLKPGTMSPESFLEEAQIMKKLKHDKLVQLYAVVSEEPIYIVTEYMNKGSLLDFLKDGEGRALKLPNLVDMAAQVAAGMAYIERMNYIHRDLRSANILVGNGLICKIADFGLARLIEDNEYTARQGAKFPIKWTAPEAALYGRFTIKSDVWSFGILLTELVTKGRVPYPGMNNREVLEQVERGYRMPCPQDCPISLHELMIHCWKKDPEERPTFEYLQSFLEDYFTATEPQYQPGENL
Sequence of MERTK (Q12866 whole entry, looked up): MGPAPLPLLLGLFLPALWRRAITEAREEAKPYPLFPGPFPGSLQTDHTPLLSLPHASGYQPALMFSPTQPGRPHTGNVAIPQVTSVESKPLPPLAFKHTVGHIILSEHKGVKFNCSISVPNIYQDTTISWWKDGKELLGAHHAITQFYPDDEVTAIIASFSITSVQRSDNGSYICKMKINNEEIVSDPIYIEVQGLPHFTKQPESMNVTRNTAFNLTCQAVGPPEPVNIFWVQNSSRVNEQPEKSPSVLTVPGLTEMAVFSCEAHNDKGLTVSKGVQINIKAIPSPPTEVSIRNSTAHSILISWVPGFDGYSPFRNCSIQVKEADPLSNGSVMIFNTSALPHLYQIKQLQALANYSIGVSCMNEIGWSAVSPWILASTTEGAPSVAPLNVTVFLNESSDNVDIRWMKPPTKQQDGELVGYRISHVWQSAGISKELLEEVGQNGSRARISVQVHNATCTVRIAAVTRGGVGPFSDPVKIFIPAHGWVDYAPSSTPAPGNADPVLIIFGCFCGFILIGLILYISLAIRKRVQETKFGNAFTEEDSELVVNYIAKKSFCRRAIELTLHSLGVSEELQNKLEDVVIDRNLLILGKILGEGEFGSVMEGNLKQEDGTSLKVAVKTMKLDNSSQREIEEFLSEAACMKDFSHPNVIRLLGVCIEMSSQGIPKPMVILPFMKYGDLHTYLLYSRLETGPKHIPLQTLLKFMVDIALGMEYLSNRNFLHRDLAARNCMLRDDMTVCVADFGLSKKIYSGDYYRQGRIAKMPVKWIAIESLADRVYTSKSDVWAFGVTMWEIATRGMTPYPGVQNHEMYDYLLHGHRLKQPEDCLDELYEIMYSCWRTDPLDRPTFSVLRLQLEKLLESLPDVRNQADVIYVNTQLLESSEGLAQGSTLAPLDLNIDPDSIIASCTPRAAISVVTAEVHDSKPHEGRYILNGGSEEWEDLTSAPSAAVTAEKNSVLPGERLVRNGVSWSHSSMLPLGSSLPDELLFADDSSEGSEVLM
Sequence of EPHB2 (P29323 whole entry, looked up): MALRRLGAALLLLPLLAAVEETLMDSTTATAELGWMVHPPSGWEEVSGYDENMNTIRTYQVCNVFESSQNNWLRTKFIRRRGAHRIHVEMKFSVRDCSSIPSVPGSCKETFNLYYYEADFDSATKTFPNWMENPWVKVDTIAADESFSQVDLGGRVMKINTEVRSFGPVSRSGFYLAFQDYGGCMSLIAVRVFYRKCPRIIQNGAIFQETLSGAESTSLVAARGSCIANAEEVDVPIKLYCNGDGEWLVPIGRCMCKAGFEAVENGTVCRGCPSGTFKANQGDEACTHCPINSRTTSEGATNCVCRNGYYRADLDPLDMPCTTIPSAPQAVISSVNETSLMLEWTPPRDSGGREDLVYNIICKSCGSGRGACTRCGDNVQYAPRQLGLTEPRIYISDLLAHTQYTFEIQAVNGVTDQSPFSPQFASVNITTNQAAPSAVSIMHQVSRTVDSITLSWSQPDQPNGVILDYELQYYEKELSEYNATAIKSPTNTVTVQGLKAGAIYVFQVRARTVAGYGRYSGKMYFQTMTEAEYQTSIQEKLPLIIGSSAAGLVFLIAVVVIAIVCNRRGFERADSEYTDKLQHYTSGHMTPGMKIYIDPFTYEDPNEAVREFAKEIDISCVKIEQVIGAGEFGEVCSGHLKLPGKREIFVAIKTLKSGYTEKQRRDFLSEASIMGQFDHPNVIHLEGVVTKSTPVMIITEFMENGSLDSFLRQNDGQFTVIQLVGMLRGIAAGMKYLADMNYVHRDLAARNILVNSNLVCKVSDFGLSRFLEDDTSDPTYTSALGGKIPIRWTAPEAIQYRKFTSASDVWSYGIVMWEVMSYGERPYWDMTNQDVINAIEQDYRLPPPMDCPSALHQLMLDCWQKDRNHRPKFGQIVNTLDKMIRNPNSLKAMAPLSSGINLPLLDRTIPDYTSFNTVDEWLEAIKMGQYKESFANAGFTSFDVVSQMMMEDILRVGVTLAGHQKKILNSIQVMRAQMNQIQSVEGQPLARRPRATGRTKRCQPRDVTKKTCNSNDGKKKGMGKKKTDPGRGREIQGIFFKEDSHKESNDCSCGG

Row | SH2 binding enrichment (c-Src SH2) | SH2 binding enrichment (SHP2-C SH2) | SH2 binding enrichment (Grb2 SH2) | Sequence | phosphorylation enrichment (Hck) | phosphorylation enrichment (EPHB2) | phosphorylation enrichment (Fer (mouse)) | phosphorylation enrichment (Fyn) | phosphorylation enrichment (EPHB1) | phosphorylation enrichment (Fes) | phosphorylation enrichment (AncSZ) | phosphorylation enrichment (FGFR1) | phosphorylation enrichment (c-Abl (mouse)) | phosphorylation enrichment (FGFR3) | phosphorylation enrichment (Jak2) | phosphorylation enrichment (c-Src) | phosphorylation enrichment (MERTK)
1 | 9.21 | 4.45 | 1.75 | CTTIHYNYICN [TP53_Y234_M237I] | 0.521 | 0.505 | 0.654 | 0.457 | 0.513 | 0.91 | 0.864 | 0.587 | 0.519 | 0.654 | 0.682 | 0.532 | 0.518
2 | 10.6 | 3.73 | 0.951 | CTTTHYNYMCN [TP53_Y234_I232T] | 0.497 | 0.592 | 0.446 | 0.441 | 0.563 | 0.722 | 0.708 | 0.551 | 0.484 | 0.533 | 0.58 | 0.424 | 0.391
3 | 2.66 | 2.38 | 1.61 | CTTVHYNFMCN [TP53_Y234_I232V_YF] | 0.445 | 0.52 | 0.598 | 0.499 | 0.458 | 0.901 | 0.769 | 0.472 | 0.687 | 0.673 | 0.622 | 0.499 | 0.384
4 | 0.501 | 0.881 | 0.904 | DEDYLYREELA [POR_Y575] | 0.642 | 0.647 | 0.61 | 0.579 | 0.71 | 1.36 | 1.61 | 0.814 | 0.903 | 1.18 | 1.25 | 0.535 | 0.502
5 | 0.547 | 0.864 | 0.823 | DGFTDYAEFAK [MCFD2_Y138_I136T_YF] | 0.954 | 0.741 | 0.477 | 0.974 | 0.88 | 1.31 | 1.24 | 0.654 | 0.811 | 0.752 | 1.34 | 1.11 | 0.542
6 | 0.609 | 0.82 | 0.643 | DKATEYSQYMR [MAX_Y70_I71S] | 0.556 | 0.525 | 0.499 | 0.571 | 0.45 | 0.864 | 0.87 | 0.531 | 0.677 | 0.541 | 0.636 | 0.745 | 0.473

Continued, sequence first:

Row | Sequence | SH2 binding enrichment (c-Src SH2) | SH2 binding enrichment (SHP2-C SH2) | SH2 binding enrichment (Grb2 SH2) | phosphorylation enrichment (Hck) | phosphorylation enrichment (EPHB2) | phosphorylation enrichment (Fer (mouse)) | phosphorylation enrichment (Fyn) | phosphorylation enrichment (EPHB1) | phosphorylation enrichment (Fes) | phosphorylation enrichment (AncSZ) | phosphorylation enrichment (FGFR1) | phosphorylation enrichment (c-Abl (mouse)) | phosphorylation enrichment (FGFR3) | phosphorylation enrichment (Jak2) | phosphorylation enrichment (c-Src) | phosphorylation enrichment (MERTK)
7 | CTTILYNFMCN [TP53_Y234_H233L_YF] | 1.79 | 2.2 | 2.3 | 0.979 | 0.622 | 0.87 | 1.03 | 0.584 | 1.22 | 0.96 | 0.601 | 0.7 | 0.806 | 0.957 | 2.16 | 1.68
8 | CTTIQYNFMCN [TP53_Y234_H233Q_YF] | 1.87 | 1.68 | 2.22 | 0.611 | 0.49 | 0.485 | 0.494 | 0.499 | 1.01 | 0.969 | 0.586 | 0.593 | 0.689 | 0.853 | 0.5 | 0.438
9 | CTTLHYNFMCN [TP53_Y234_I232L_YF] | 2.26 | 1.64 | 1.53 | 0.395 | 0.406 | 0.708 | 0.391 | 0.361 | 0.78 | 0.718 | 0.567 | 0.545 | 0.534 | 0.758 | 0.538 | 0.424
10 | CTTTHYNFMCN [TP53_Y234_I232T_YF] | 3.48 | 1.79 | 1.27 | 0.469 | 0.427 | 0.466 | 0.437 | 0.397 | 0.758 | 0.758 | 0.403 | 0.484 | 0.557 | 0.561 | 0.375 | 0.393
11 | DAVCYYRMENA [NPHS2_Y195_I192V] | 0.548 | 0.648 | 0.676 | 1.37 | 0.588 | 0.704 | 1.34 | 0.622 | 1.1 | 1.9 | 7.53 | 0.956 | 6.2 | 6.76 | 3.44 | 1.82
12 | DAVKHYMQFQK [CNGA2_Y395_R399Q] | 0.62 | 0.781 | 0.768 | 0.552 | 0.301 | 0.424 | 0.429 | 0.451 | 0.496 | 0.548 | 0.348 | 0.356 | 0.449 | 0.461 | 0.485 | 0.473
13 | DCAAIYGNEPE [AKR1A1_Y50] | 0.72 | 0.689 | 0.966 | 0.897 | 0.694 | 0.672 | 1.02 | 0.612 | 1.22 | 1.27 | 0.588 | 0.799 | 0.734 | 1.42 | 1.42 | 0.806
14 | DDYDLYGGEKF [PTPN11_Y66_Y62D] | 0.553 | 0.59 | 0.76 | 2.25 | 2.85 | 0.957 | 1.7 | 0.915 | 1.1 | 1.51 | 0.507 | 0.871 | 0.681 | 0.963 | 2.07 | 0.439
15 | DEFLEYRRIVG [FAM221A_Y20_YF] | 0.53 | 1 | 0.945 | 0.537 | 0.439 | 0.526 | 0.505 | 0.469 | 1.17 | 0.83 | 0.466 | 0.797 | 0.551 | 0.964 | 0.507 | 0.493
16 | DFLEKYFKFGC [NNMT_Y24_S29C_YF] | 0.674 | 0.763 | 0.84 | 0.417 | 0.545 | 0.554 | 0.435 | 0.55 | 1.38 | 1.11 | 0.497 | 0.768 | 0.73 | 0.993 | 0.549 | 0.507
17 | DGQVNYEGFVQ [CALM1_Y139_E141G] | 0.586 | 0.467 | 0.659 | 0.553 | 1.01 | 0.793 | 0.512 | 1.31 | 1.07 | 0.996 | 0.496 | 1.19 | 0.724 | 1.04 | 0.603 | 0.453
